Laboratory results: publication PMC10625714 (Nature chemical biology, 2023)

Target: the molecule itself
Test: cryo-EM structure

B1: nuclease-deficient AsCas12f (AsCas12f-D225A) (enzyme, Acidibacillus sulfuroxidans)
chain: MIKVYRYEIVKPLDLDWKEFGTILRQLQQETRFALNKATQLAWEWMGFSSDYKDNHGEYPKSKDILGYTNVHGYAYHTIKTKAYRLNSGNLSQTIKRATDRFKAYQKEILRGDMSIPSYKRDIPLDLIKENISVNRMNHGDYIASLSLLSNPAKQEMNVKRKISVIIIVRGAGKTIMDRILSGEYQVSASQIIHDDRKNKWYLNISYDFEPQTRVLDLNKIMGIALGVAVAVYMAFQHTPARYKLEGGEIENFRRQVESRRISMLRQGKYAGGARGGHGRDKRIKPIEQLRDKIANFRDTTNHRYSRYIVDMAIKEGCGTIQMEDLTNIRDIGSRFLQNWTYYDLQQKIIYKAEEAGIKVIKIDPQYTSQRCSECGNIDSGNRIGQAIFKCRACGYEANADYNAARNIAIPNIDKIIAESIK
stoichiometry N: 2
